Test results: US20250179196A1 (Janssen / Centocor, published 2025)
Substitutions are numbered along the chain they refer to.

B1: I23RB321 (antibody, mouse IgG2a, kappa, V domains shown)
VH: QVQLVQSGAEVKKPGSSVKVSCKASGGTFSSYGISWVRQAPGQGLEWMGWISAIFGTTNYAQKFQGRVTITADESTSTAYMELSSLRSEDTAVYYCARHWLQSFDYWGQGTLVTVSS
VL: DIQMTQSPSSLSASVGDRVTITCRASQSIGGDLNWYQQKPGKAPKLLIYAASSLQSGVPSRFSGSGSGTDFTLTISSLQPEDFATYYCQQSYSTPLTFGQGTKVEIKR
notes: phage display; human V regions, mouse IgG2a/kappa constant regions
B2: I23RB259 (antibody, mouse IgG2a, kappa, V domains shown)
VH: B1 VH with A53P, H99M, W100M, L101M, F104L
VL: not shown
notes: as for B1
B3: I23RB261 (antibody, mouse IgG2a, kappa, V domains shown)
VH: B1 VH with G33A, A53P, I54Y, T58A, H99M, W100Y, L101R, S103G
VL: B1 VL with G30N, G31D
notes: as for B1
B4: I23RB319 (antibody, mouse IgG2a, kappa, V domains shown)
VH: B1 VH with V93L, H99P, W100L, L101K, S103A
VL: B1 VL with G30T, G31D
notes: as for B1
B5: I23RB85 (antibody, mouse IgG2a, kappa, V domains shown)
VH: DVQLQESGPGLVAPSQSLSITCTVSGFSFNTYAITWVRQPPGRGLEWLGVLWPGGGISYNLALKSRLTISRDSSKSQVFLEMNSLQTDDTARYYCARNWRHYDGSYAMDFWGQGTSVTVSS
VL: DIVLTQSPLSLFVSLGDQASISCRSSQSLVHSNGNTYLHWYLQKPGQSPKLLIYKVSNRFSGVPDRFSGSGSGTDFTLKISRVEAEDLGVYFCSQSTHVPWTFGGGTRLEIKR
notes: mouse immunization; mouse IgG2a/kappa
B6: I23RB45 (antibody, mouse IgG2a, kappa, V domains shown)
VH: QVTLKESGPGILQPSQTLSLTCSFSGFSLSTYGMGVSWIRQPSGKGLEWLAHIYWDDDKRYNPSLKSRLTISKDTSNNQVFLKITSVDTADTATYYCAQRALPLLGQKAPFDYWGQGTTLTVSS
VL: DIVLTQSQKFISTSVGDRVSITCKASQNVRTAVAWYQQKPGQSPKLLIYLPSNRHTGVPDRFTGSGSGTVFTLTISNVQSEDQADYFCLQHWNYPLTFGAGTKLELKR
notes: as for B5
B7: I23RB31 (antibody, mouse IgG2a, kappa, V domains shown)
VH: EFQLQQSGAEMVRPGASVKLSCKASGYTFTGYWMNWVKQRPGQGLEWIGKIDPSDTETHYNQNFKDKATLTVDKSSSTAYMQLNSLTSEDSAVYYCARWGLGRNFAMDYWGQGTTLTVSS
VL: DIVLTQSPATLSVTPGDRVSLSCRASQSISDHLHWYQQKSHESPRLLIKFASQSISGIPSRFSGSGSGSDFTLSIDSVEPEDVGVYYCQNGHSFPLTFGSGTKLEIKR
notes: as for B5
B8: I23RB260 (antibody, mouse IgG2a, kappa, V domains shown)
VH: QVQLVQSGAEVKKPGSSVKVSCKASGGTFSSYGISWVRQAPGQGLEWMGGIIPIFGTANYAQKFQGRVTITADESTSTAYMELSSLRSEDTAVYYCARDFGWSLWFDYWGQGTLVTVSS
VL: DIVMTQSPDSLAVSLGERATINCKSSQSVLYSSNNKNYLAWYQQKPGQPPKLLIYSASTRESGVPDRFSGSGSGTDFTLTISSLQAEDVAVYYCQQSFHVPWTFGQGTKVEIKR
notes: as for B1
B9: I23RB91 (antibody, mouse IgG2a, kappa, V domains shown)
VH: EFQLQQFGPELLKPGASVKISCKASGYTFTDYIMHWVKQSHGKSLEWIGGISPNYGGTGYNGKFKDKATLTVDKSSSTAYMELRSLTSEDSAVYYCARFNNYYYFDYWGQGTTLTVSS
VL: DIKMTQSPSSMYASLGERVTITCKASQDINSYLSWCQQKPGKSPKALIYRANSLVDGVPSRFSGSGSGQDYSLTISSLEYEDMGIYYCLQYDEFPYTFGGGTKLEMKR
notes: as for B5
B10: I23RB177 (antibody, mouse IgG2a, kappa, V domains shown)
VH: EVQLQQSGPELLKPGASVKISCKASGYTITDYTMHWVKQSHGKSLEWIGGINPNYGGTSYNEKFKDKATLTVDKSSSTAYMELRSLTSEDSAVFYCVRGNIYFDYWGQGTTLTVSS
VL: B9 VL with D1N, I2T, K3Q, C36F, S53R, L89Q, Y96R, G100A, M106L
notes: as for B5
B11: I23RB264 (antibody, mouse IgG2a, kappa, V domains shown)
VH: B1 VH with G33A, W50G, S52I, A53P, T58A, H99R, W100S, L101S, Q102P, S103G
VL: B1 VL with G30D, G31N, A50N, S91P, T94I
notes: as for B1
B12: I23RB317 (antibody, mouse IgG2a, kappa, V domains shown)
VH: QVQLVQSGAEVKKPGSSVKVSCKASGGTFSSYAISWVRQAPGQGLEWMGGIIPIFGTANYAQKFQGRVTITADESTSTAYMELSSLRSEDTAVYYCARGNGVNYHSELDYWGQGTLVTVSS
VL: EIVLTQSPATLSLSPGERATLSCRASQSVDSFLAWYQQKPGQAPRLLIYTASNRATGIPARFSGSGSGTDFTLTISSLEPEDFAVYYCQQGNSAPFTFGQGTKVEIKR
notes: as for B1
B13: I23RB161 (antibody, mouse IgG2a, kappa, V domains shown)
VH: EFQLQQSGPELVKPGASVKISCKASVYAFSSSWMNWVKQRPGKGLEWIGRIYPGDGDTNYNGKFKGKATLTADKSSSTAYMQLSSLTSEDSAVYFCARRYDFGSAMDYWGQGTSVTVSS
VL: DIVMTQSPAILSASPGEKVTMTCRASSSVSYMHWYQQKPGSSPKPWIYATSDLASGAPARFSGSGSGTSYSLTISRVEAEDAATYYCQQWSSNPPTFGGGTKLEIKR
notes: as for B5
B14: I23RB180 (antibody, mouse IgG2a, kappa, V domains shown)
VH: QVTLKESGPGILQPSQTLSLTCSFSGFSLSTYGMGVGWIRQPSGKGLEWLANIWWNDSKYHNAALKSRLTISKDTSKNQVFLKIASVDTADTATYYCGRIDGYYECVDVWGTGTSVTVSS
VL: DIQMTQSPASLSASVGETVTITCRASVNIHNYLAWYQQKQGKSPQLLVYNAKTLADGVPSRFSGSGSGTQYSLKINSLQPEDFGSYYCQHFWTTPYMYTFGAGTKLELKR
notes: as for B5
B15: I23RB69 (antibody, mouse IgG2a, kappa, V domains shown)
VH: EVQLQQSGAELVKPGASVKISCKASGYSFTGYNMNWVKQSHGKSLEWIGNINPFYDKTSYNQKFKGKATLTVDKASSTAYMQLNSLTSEDSAVYYCARQLGLKGFAYWGQGTLVTVSA
VL: DIVMTQSHKFMSTSVGDRVSITCKASQDVSTAVAWYQQKPGQSPKLLIYSASYRYTGVPDRFTGSGSGTDFTFTISSVQAEDLAVYYCQQHYSTPWTFGGGTKLEMKR
notes: as for B5

What follows are binders tested against T1, Recombinant human IL-23 receptor (IL-23R) extracellular domain (ECD) protein (human, UniProt Q5VWK5 24-355) (assay: SPR Biacore 8K, supernatant, analysis 1).
T1 construct: also called human IL-23R ECD; hu IL-23R ECD
T1 sequence: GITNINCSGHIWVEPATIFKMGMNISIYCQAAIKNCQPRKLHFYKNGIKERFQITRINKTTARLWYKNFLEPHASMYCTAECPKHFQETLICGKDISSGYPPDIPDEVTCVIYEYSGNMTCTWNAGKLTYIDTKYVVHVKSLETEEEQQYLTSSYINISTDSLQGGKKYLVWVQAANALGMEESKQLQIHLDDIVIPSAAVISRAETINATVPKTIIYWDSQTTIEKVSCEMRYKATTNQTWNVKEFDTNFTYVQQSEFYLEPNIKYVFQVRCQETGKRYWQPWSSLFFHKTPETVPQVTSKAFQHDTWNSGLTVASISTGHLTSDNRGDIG
Experimental: (§1) Affinity by SPR using Biacore 8K. Affinity measurements using Surface Plasmon Resonance (SPR) were performed using a Biacore 8K system (Cytiva). […] Approximately 9000-10000 RU (response units) of mAbs were immobilized. The kinetic experiments were performed at 25° C. in running buffer 1× of (HBS-P+ Buffer 10× (Cytiva #BR100671)+100 μg/ml BSA). To perform kinetic experiments, approximately 150 RU of mAbs were captured followed by injections of human IL-23R or rat IL-23R at concentrations ranging from 0.8 nM to 500 nM (in a 5-fold serial dilution). The association phase was monitored for 3 minutes at 50 μL/min, then followed by 30 minutes of buffer flow (dissociation phase). […] The collected data were processed using Biacore insight Evaluation software (Version 3.0.12.15655). The kinetic analysis of the data was performed using a Langmuir 1:1 binding model. The result for each mAb was reported in the format of Ka (On-rate), Kd (Off-rate) and KD (equilibrium dissociation constant).
With B1 the Kd was 18.4 nM, the koff was 0.000384 s⁻¹ and the kon was 20900 M⁻¹ s⁻¹. In the case of B2, the Kd is reported as 13.4 nM, the koff is reported as 0.000752 s⁻¹ and the kon is reported as 55900 M⁻¹ s⁻¹. For B3, the Kd was 22.5 nM, the koff was 0.000402 s⁻¹ and the kon was 17900 M⁻¹ s⁻¹. B4 showed a Kd of 9.05 nM, a koff of 8.01e-05 s⁻¹ and a kon of 8850 M⁻¹ s⁻¹. B5 showed a Kd of 1.08 nM, a koff of 0.000226 s⁻¹ and a kon of 210000 M⁻¹ s⁻¹. Work on B6 yielded a Kd of 21 nM, a koff of 0.00332 s⁻¹ and a kon of 158000 M⁻¹ s⁻¹. With B7 the Kd was 18.9 nM, the koff was 0.00123 s⁻¹ and the kon was 65500 M⁻¹ s⁻¹. B8 gave a Kd of 4.75 nM, a koff of 8.72e-05 s⁻¹ and a kon of 18400 M⁻¹ s⁻¹. B9 showed a Kd of 5.15 nM, a koff of 0.00011 s⁻¹ and a kon of 21400 M⁻¹ s⁻¹. B10 was tested, and the Kd was 5.7 nM, the koff was 0.000107 s⁻¹ and the kon was 18800 M⁻¹ s⁻¹. Work on B11 yielded a Kd of 17.9 nM, a koff of 0.000847 s⁻¹ and a kon of 47400 M⁻¹ s⁻¹. B12 showed a Kd of 25.2 nM, a koff of 0.000596 s⁻¹ and a kon of 23600 M⁻¹ s⁻¹. Binder B13 has a Kd of 84.5 nM, a koff of 0.0274 s⁻¹ and a kon of 324000 M⁻¹ s⁻¹. Binder B14 has a Kd of 150 nM, a koff of 0.0302 s⁻¹ and a kon of 201000 M⁻¹ s⁻¹. In the case of B15, the Kd is reported as 263 nM, the koff is reported as 0.0493 s⁻¹ and the kon is reported as 188000 M⁻¹ s⁻¹.

What follows are binders tested against T1, Recombinant human IL-23 receptor … (assay: SPR Biacore 8K, supernatant, analysis 2).
Experimental: as §1
B5 gave a Kd of 1.43 nM, a koff of 0.000178 s⁻¹ and a kon of 124000 M⁻¹ s⁻¹. B6 was tested, and the Kd was 22.5 nM, the koff was 0.00456 s⁻¹ and the kon was 203000 M⁻¹ s⁻¹. Work on B7 yielded a Kd of 8.55 nM, a koff of 0.000781 s⁻¹ and a kon of 91300 M⁻¹ s⁻¹.
